Experimental data as given in PMC3497011.
Values belong to the substance of their own block, whether it stands above or below them.

How the values were obtained:
[1] = molecular target: EGFR-GGS, chimeric receptor in which the JM domain is replaced by a (GGS)10 sequence; test: flow cytometry on cells
[2] = molecular target: EGFR-GGS tagged at the C-terminus with a fluorescent protein (EGFR-GGS-YFP and EGFR-GGS-mCherry, co-expressed); test: FRET or BRET
[3] = molecular target: EGFR-GGS, chimeric receptor in which the JM domain is replaced by a (GGS)10 sequence; test: cross-linking

ratio of EGFR-GGS-bound ligand to EGFR-bound ligand [1]: 1
Substance: Alexa Fluor 488-labeled EGF (ligand)

FRET efficiency [2]: 0.25
Substance: EGFR-GGS tagged at the C-terminus with a fluorescent protein (EGFR-GGS-YFP and EGFR-GGS-mCherry, co-expressed) (receptor)

cross-linked fraction (no ligand) [3]: 0.42 | cross-linked fraction (with EGF) [3]: 0.64 | stoichiometry N [3]: 2
Substance: EGFR-GGS, chimeric receptor in which the JM domain is replaced by a (GGS)10 sequence
